Data on four molecules can be found in patent US20040170976A1, “Solubility reporter gene constructs” (priority 2000, published 2004).

The nature of data set [1]: pI of T. maritima proteins. Format: physicochemical, Thermotoga maritima.
Data set [2] can be described thus: Fractionation of soluble and insoluble recombinant protein by cell lysis and centrifugation / SDS-PAGE. Format: physicochemical. Conditions: T. maritima proteins expressed in E. coli; SDS-PAGE of soluble and insoluble fractions. How it is done:
E. coli strains MG1655 (F^−lam rph1) and KY1429 (F- araD139 Δ(argF-lac)169 lam flhD5301 fruA25 relA1 rpsL150 zhh50::Tn10 rpoH606(ts) deoC1) were transformed with expression plasmids encoding M36881 (LCK) or M86400 (PLA) for expression profiling. Cells were cultured at 37° C. in Luria Broth containing ampicillin. Protein expression was induced by addition of L-arabinose to a final concentration of 0.1% for 1 hour. KY1429 cells were cultured as above except initial growth was performed at 32° C. followed by a shift to 42° C. for non-permissive expression of rpoH606. Top10 cells (F^−-mcrA Δ(mrr-hsdRMS-mcrBC) φ80lacZΔM15 ΔlacX74 deoR recA1 araD139 Δ(ara-leu)7697 galU galK rpsL endA1 nupG) containing the ibpAB promoter fusion (pHK57), were transformed with expression constructs listed above. Beta-galactosidase assays were performed essentially as described by Miller (24). Fractionation of soluble and insoluble proteins was performed by centrifugation. Cultures were resuspended in 50 mM Tris pH 7.9, 50 mM NaCl, 1 mM MgCl2, 3 mM methionine and sonicated for 2 minutes on ice. Cell debris and insoluble protein aggregates were pelleted by centrifugation at 3000×g for 15 minutes. The soluble fraction was removed and the pellets resuspended in an equivalent volume of lysis buffer.

B1: TM0294: T. maritima glutamate 5-kinase (proB) (protein, UniProt Q9WYD0 1-353, looked up)
Glutamate 5-kinase: MIMKVVVKVGSNLLVGSSGLRKSYIAELCREVARLKSQGHEISIITSGARAAGFTYLGKGKRTQDLHIKQALCAVGQVQLMKVYENAFDFYGIKIAQILLTRDTFSNRKRYLNLRNTLIGLSEFDVVPIVNENDTVATEEITLGDNDTLAAMFSIAWDADFLVLFTTVDGVIDENGKLVERFDESVKLKDMGKSSWGTGGIRSKIESALMASRCGVKATICSGNDVSNLTRFVKGEPVGTVFEPQGRLKAKKAWIAFLSEPAGKIYVNKGAEEALKSGNSLLPVGVTGVEGTFDVGDVVEIVNEEGELVGRGIVNYSSSDLEKIAGHKSSDLKKILGYEGNKVVVHIDNMWVA
Consider B1, for which the pI in data set [1] was 6.92.

B2: TM0688: T. maritima glyceraldehyde-3-phosphate dehydrogenase (gap) (protein, UniProt P17721 2-333, looked up)
Glyceraldehyde-3-phosphate …: ARVAINGFGRIGRLVYRIIYERKNPDIEVVAINDLTDTKTLAHLLKYDSVHKKFPGKVEYTENSLIVDGKEIKVFAEPDPSKLPWKDLGVDFVIESTGVFRNREKAELHLQAGAKKVIITAPAKGEDITVVIGCNEDQLKPEHTIISCASCTTNSIAPIVKVLHEKFGIVSGMLTTVHSYTNDQRVLDLPHKDLRRARAAAVNIIPTTTGAAKAVALVVPEVKGKLDGMAIRVPTPDGSITDLTVLVEKETTVEEVNAVMKEATEGRLKGIIGYNDEPIVSSDIIGTTFSGIFDATITNVIGGKLVKVASWYDNEYGYSNRVVDTLELLLKM
Regarding B2, the pre-determined expression characteristics result in data set [2] is given as “Insoluble”. The pI in data set [1] is recorded as 6.21.

B3: TM0556: T. maritima 3-isopropylmalate dehydrogenase (leuB) (protein, UniProt Q9WZ26 1-354, looked up)
3-isopropylmalate …: MKIAVLPGDGIGPEVVREALKVLEVVEKKTGKTFEKVFGHIGGDAIDRFGEPLPEETKKICLEADAIFLGSVGGPKWDDLPPEKRPEIGGLLALRKMLNLYANIRPIKVYRSLVHVSPLKEKVIGSGVDLVTVRELSYGVYYGQPRGLDEEKGFDTMIYDRKTVERIARTAFEIAKNRRKKVTSVDKANVLYSSMLWRKVVNEVAREYPDVELTHIYVDNAAMQLILKPSQFDVILTTNMFGDILSDESAALPGSLGLLPSASFGDKNLYEPAGGSAPDIAGKNIANPIAQILSLAMMLEHSFGMVEEARKIERAVELVIEEGYRTRDIAEDPEKAVSTSQMGDLICKKLEEIW
Take B3: the pre-determined expression characteristics entry in data set [2] is on record as “Soluble”. The molecule also registered a pI in data set [1] of 5.44.

B4: TM0574: T. maritima S-adenosylmethionine tRNA ribosyltransferase (queA) (protein, UniProt Q9WZ44 1-335, looked up)
S-adenosylmethionine:tRNA …: MKVSEFDYELPPELIAQEPVEPRDASRLMVLHRKTQRIEHRIFREIIEYLEPGDLLVLNVSKVIPARLYARKKTGASIEILLIERLEEGIWKCLVRPGQKVKKGTELVIDEDLSAVCLGRGEDGTRILKFQPQDDRLIFEKGRTPLPPYIKNEVPLERYQTVYAKEEGSVAAPTAGLHFTPELIEKLKKKGVQFAEVVLHVGIGTFRPVKVEEVEKHKMHEEFYQVPKETVRKLRETRERGNRIVAVGTTTVRTLETIARLPEQEEYVGKTDLFIYPPFEFKLVDALVTNFHLPRSTLLMLVAAFAGKDFVMEAYREAVKRRYRFFSFGDAMLIL
Consider B4, for which the pre-determined expression characteristics result in data set [2] is recorded as “Soluble”. The molecule also registered a pI in data set [1] of 8.61.
